Consider 1 molecule from article PMC9569640 (2022).

Square brackets hold non-standard residues; d marks the D form. Ends that are not written are not given here. FAM = FAM, a fluorescent label attached at the N-terminus of the peptide; pY = N[C@@H](Cc1ccc(OP(=O)(O)O)cc1)C(=O)O

Holding throughout (assay): fluorescence polarization
Test [1] deals with CagA EPIYA-D 13-mer (Helicobacter pylori).
Test [2] concerns the target CagA EPIYA-A 13-mer (Helicobacter pylori).
Test [3] addresses T1, CagA EPIYA-CD 8-mer (Helicobacter pylori).
T1 chain: {FAM}-EPI[pY]ATID

For test [4], the target named is T2, CagA EPIYA-B 13-mer (Helicobacter pylori).
T2 chain: {FAM}-PEEPI[pY]AQVAKKV

Test [5] addresses T3, CagA EPIYA-C 13-mer (Helicobacter pylori).
T3 chain: {FAM}-SPEPI[pY]ATIDDLG

B1: SHIP2 SH2 (protein)
chain: APSWYHRDLSRAAAEELLARAGRDGSFLVRDSESVAGAFALCVLYQKHVHTYRILPDGEDFLAVQTSQGVPVRRFQTLGELIGLYAQPNQGLVCALLLPVEGE
As to B1, the Kd in test [1] is 3.16 µM; in test [2], 23.4 µM; in test [3], 4.45 µM; in test [4] it was 18.6 µM; in test [5] it was 2.96 µM.
